Reference: article PMC9062432

Target: AphC, extradiol dioxygenase from Rhodococcus jostii RHA1 (Rhodococcus jostii RHA1)
Test: crystal structure

“AphC, extradiol dioxygenase from Rhodococcus jostii RHA1 (enzyme)” gave a stoichiometry N of 4.
